Patent publication US20250099634A1, “METHOD OF TREATING CANCER” (Novartis AG, priority 2023, published 2025)

Legend:
[1] = biological target: OAT3 (Homo sapiens, UniProt Q8TCC7)
[2] = test system: somatostatin receptor-positive tumors, including GEP-NETS; settings: 1,214 patients; cited from earlier work
[3] = test system: human CYP450 enzymes
[4] = in vivo; cited from earlier work
[5] = test system: serum inhibin B; settings: human, in vivo; cited from earlier work
[6] = biological target: OATP1B1 (Homo sapiens, UniProt Q9Y6L6)
[7] = biological target: OAT1 (Homo sapiens, UniProt Q4U2R8)
[8] = biological target: OCT1 (Homo sapiens, UniProt O15245)
[9] = biological target: P-glycoprotein (efflux transporter) (Homo sapiens, UniProt P08183)
[10] = test system: progressive GEP-NETs; settings: cited from earlier work
[11] = test system: metastatic midgut NET; settings: 30 mg/month, cited from earlier work

Chain of OAT1 (Q4U2R8 whole entry): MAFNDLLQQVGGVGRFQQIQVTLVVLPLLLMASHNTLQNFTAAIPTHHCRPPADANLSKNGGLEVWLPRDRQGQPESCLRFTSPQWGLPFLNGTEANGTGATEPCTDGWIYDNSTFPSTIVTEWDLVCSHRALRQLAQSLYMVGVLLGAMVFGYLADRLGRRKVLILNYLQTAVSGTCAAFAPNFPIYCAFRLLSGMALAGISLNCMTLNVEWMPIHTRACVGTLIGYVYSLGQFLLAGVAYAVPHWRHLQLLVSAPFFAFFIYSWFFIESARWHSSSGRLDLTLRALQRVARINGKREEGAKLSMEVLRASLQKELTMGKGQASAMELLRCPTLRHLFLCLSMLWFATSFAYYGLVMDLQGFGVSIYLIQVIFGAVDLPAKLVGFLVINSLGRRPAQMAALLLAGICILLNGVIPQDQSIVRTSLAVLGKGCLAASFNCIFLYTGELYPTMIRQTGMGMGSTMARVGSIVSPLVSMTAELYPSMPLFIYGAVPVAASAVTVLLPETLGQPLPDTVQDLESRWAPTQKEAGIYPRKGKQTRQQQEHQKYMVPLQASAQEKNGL
Chain of P-glycoprotein (efflux transporter) (P08183 whole entry): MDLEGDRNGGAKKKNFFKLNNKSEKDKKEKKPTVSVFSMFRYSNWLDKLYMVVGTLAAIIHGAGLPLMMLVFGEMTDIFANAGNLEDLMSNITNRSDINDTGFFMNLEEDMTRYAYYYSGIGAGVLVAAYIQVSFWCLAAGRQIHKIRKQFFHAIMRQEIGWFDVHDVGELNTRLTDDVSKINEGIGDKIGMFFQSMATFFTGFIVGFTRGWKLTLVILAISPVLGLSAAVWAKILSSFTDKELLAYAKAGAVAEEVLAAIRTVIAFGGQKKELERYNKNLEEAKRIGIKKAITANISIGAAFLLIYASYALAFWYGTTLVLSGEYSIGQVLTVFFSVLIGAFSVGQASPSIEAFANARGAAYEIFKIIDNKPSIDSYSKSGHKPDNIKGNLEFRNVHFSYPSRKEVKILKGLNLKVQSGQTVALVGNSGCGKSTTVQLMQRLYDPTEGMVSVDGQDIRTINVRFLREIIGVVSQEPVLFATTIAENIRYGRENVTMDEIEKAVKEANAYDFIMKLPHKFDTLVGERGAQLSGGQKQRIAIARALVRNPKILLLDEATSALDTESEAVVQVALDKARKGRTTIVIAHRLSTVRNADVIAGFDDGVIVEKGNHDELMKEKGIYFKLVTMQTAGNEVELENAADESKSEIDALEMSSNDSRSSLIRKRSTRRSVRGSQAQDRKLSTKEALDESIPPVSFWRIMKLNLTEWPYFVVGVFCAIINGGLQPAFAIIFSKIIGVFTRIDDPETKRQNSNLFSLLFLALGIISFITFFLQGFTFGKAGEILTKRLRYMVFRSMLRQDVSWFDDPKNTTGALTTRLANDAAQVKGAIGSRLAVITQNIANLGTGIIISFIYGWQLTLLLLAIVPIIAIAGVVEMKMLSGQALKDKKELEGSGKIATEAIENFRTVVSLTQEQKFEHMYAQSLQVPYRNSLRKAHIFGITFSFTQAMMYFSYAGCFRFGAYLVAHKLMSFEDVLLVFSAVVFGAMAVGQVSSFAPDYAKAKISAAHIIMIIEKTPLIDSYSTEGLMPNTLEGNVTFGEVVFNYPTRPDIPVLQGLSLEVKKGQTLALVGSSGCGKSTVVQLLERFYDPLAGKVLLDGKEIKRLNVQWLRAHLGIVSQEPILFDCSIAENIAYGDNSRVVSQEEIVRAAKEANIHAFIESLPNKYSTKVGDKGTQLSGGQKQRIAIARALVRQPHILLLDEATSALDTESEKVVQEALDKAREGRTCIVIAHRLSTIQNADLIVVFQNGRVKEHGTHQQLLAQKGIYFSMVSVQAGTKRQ
Chain of OATP1B1 (Q9Y6L6 whole entry): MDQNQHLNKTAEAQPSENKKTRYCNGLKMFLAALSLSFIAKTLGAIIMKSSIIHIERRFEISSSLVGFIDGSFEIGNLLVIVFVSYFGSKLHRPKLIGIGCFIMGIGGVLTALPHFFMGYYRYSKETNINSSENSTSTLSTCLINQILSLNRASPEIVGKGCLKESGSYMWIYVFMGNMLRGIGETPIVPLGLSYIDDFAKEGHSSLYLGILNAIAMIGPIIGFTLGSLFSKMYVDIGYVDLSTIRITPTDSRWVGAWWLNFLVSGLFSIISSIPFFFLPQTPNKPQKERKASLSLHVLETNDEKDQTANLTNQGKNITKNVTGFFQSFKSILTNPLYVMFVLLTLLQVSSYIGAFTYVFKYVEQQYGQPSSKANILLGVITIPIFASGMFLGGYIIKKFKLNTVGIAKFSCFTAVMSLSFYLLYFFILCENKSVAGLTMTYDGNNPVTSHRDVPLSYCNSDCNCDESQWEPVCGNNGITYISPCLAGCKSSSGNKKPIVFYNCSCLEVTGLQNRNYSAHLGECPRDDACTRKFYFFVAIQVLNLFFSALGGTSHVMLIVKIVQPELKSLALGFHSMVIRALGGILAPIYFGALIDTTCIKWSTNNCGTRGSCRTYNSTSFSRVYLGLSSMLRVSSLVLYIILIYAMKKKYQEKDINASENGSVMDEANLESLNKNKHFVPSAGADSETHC
Chain of OCT1 (O15245 whole entry): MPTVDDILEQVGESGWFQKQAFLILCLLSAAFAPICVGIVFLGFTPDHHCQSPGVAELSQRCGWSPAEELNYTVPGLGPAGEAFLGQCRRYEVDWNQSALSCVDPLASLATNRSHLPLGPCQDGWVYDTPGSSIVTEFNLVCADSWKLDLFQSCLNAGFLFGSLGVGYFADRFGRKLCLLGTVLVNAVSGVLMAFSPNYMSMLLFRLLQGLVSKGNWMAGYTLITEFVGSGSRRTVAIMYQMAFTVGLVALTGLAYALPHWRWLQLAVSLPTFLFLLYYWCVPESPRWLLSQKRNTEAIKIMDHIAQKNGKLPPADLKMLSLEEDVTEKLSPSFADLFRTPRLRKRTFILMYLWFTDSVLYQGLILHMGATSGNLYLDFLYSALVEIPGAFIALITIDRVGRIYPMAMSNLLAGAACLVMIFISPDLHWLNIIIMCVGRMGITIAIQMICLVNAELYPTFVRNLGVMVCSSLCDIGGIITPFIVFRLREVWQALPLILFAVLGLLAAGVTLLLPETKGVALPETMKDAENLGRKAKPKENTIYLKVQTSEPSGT
Chain of OAT3 (Q8TCC7 whole entry): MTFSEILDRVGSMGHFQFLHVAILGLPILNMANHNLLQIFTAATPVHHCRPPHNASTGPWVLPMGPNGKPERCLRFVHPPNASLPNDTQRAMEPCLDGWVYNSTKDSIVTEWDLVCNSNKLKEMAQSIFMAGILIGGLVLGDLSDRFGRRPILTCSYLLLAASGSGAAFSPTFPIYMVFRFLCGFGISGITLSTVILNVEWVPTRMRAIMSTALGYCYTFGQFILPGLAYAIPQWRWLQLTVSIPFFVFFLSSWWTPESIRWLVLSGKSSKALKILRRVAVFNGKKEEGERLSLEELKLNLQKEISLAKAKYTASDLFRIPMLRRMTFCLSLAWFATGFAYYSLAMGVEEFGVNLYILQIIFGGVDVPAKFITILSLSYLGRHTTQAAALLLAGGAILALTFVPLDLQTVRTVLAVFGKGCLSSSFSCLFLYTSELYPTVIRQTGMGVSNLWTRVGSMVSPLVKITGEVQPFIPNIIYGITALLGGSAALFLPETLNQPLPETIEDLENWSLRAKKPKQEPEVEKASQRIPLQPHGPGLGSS

| Structure (SMILES) | interaction with OAT3 [1] | Complete or partial tumor remission [2] [%] | inhibition or induction of human CYP450 enzymes [3] | delayed bone marrow toxicity [4] [%] | mean serum inhibin B levels [5] | interaction with OATP1B1 [6] | interaction with OAT1 [7] | interaction with OCT1 [8] | interaction with P-glycoprotein [9] | AML and MDS ([10]; in vivo) [%] | Hematologic grade 3/4 AEs ([10]; in vivo) [%] | median OS from the start of re-treatment ([10]; re-treatment, available in 194 patients) [months] | DCR ([10]; re-treatment, available in 347 patients) [%] | median PFS ([10]; re-treatment, available in 414 patients) [months] | time to tumor progression ([11]; 42 patients) [months] | patients achieving stable disease [11] [%] |
| --- | --- | --- | --- | --- | --- | --- | --- | --- | --- | --- | --- | --- | --- | --- | --- | --- |
| C[C@@H](O)[C@H](NC(=O)[C@@H]1CSSC[C@H](NC(=O)[C@@H](Cc2ccccc2)NC(=O)CN2CCN(CC(=O)[O-])CCN(CC(=O)[O-])CCN(CC(=O)[O-])CC2)C(=O)N[C@@H](Cc2ccc(O)cc2)C(=O)N[C@H](Cc2c[nH]c3ccccc23)C(=O)N[C@@H](CCCCN)C(=O)N[C@@H]([C@@H](C)O)C(=O)N1)C(=O)O.[177Lu+3] [Lutathera, ^177Lu-DOTA^0-Tyr^3-Octreotate] | absence of specific interaction | 39 | absence of inhibition or significant induction | 1.5 to 2 | significant decrease | absence of specific interaction | absence of specific interaction | absence of specific interaction | absence of specific interaction | < 1 | 9 | 26.78 | 71 | 12.52 |  |  |
| C[C@@H](O)[C@@H]1NC(=O)[C@H](CCCCN)NC(=O)[C@@H](Cc2c[nH]c3ccccc23)NC(=O)[C@H](Cc2ccccc2)NC(=O)[C@@H](NC(=O)[C@H](N)Cc2ccccc2)CSSC[C@@H](C(=O)N[C@H](CO)[C@@H](C)O)NC1=O [Octreotide LAR, octreotide] |  |  |  |  |  |  |  |  |  |  |  |  |  |  | 14.3 | 67 |
